Measured values published in patent US6635751B1, “Isolated nucleic acids encoding activated and suppressive forms of ATF6” (HSP Research Institute, Inc., priority 1998, dated 2003).

How the values were obtained:
[1] = tested on: human GRP78 promoter; assay: Overexpression of CREB-RP mutants with GRP78 promoter luciferase reporter in HeLa cells, ERSE-mediated transcription; assay type: cell-based; conditions: for ERSE-dependent transcriptional induction by the TM treatment: 2 μg/ml tunicamycin for 16 hours
Excerpt: (§1) In a 96-well plate, the HeLa cells were transiently transformed with a reporter plasmid pGL-G78(−132) for expressing firefly luciferase gene under the control of a human GRP78 promoter together with pcDNA3.1 vector which has no inserts or with ATF6(1-373) expression plasmid or with CREB-RP(1-389) expression plasmid. Relative activity is indicated by the mean±standard deviation (bars), based on four independent experiments (each triplicate determinations).
as §1, with “transformed using” for “transformed with”, “with CREB-RP(308-386)” for “with ATF6(1-373) expression plasmid or with CREB-RP(1-389)”, “plasmid. Transfected cells were treated with (closed bars) or without 2 μg/ml tunicamycin (open bars) for 16 hours before luciferase activities were determined.” for “plasmid.”
In the figure, closed bars and open bars indicate the same as those in FIG. 31.
The CREB-RP(1-389) expression plasmid and a reporter plasmid resulting from ligation of the luciferase gene to downstream of the GRP78 promoter or mutant GRP78 promoter were introduced into the HeLa cells to evaluate the effect of CREB-RP(1-389) overexpression on ERSE-mediated transcriptional activation.
In the same manner as in Example 16, the effect of CREB-RP(308-386) overexpression on ERSE-mediated transcriptional activation was evaluated.
In addition, in the same manner as in Example 16, the effect of overexpression of CREB-RP(81-389) or CREB-RP(151-389) on ERSE-mediated transcriptional activation was evaluated. Here, each of CREB-RP(81-389) and CREB-RP(151-389) lacks transcription-activating domain.

[2] = tested on: HeLa cells; assay: Immunoblotting time course of p50ATF6 and GRP78 in treated HeLa cells; assay type: cell-based, human; conditions: 7 μM A23187 or 300 μM thapsigargin
Description: HeLa cells were treated with 2 μg/ml TM, 7 μM A23187 or 300 μM thapsigargin (in the figure, simply referred to as “Tg”) for the indicated period. Alternatively, HeLa cells which were treated separately from the above treated cells were heat-shocked at 43° C. for 1 hour and then recovered at 37° C. for the indicated period. Whole cell extracts were prepared and analyzed by immunoblotting using an anti-B03N antiserum or an antiserum specific to either GRP78 or HSP70.
HeLa cells cultured in a 60-mm dish so as to have 60% confluency were incubated in the presence of 2 μg/ml tunicamycin (TM) for the indicated period. Cells were washed with PBS, scraped with a rubber policeman, and suspended in 100 μl Laemmli's SDS sample buffer. After boiling the suspension for 5 minutes, aliquots corresponding to 1×10^5 cells were subjected to SDS-PAGE (10% gel) and analyzed by immunoblotting using an anti-ATF6 antibody, or an anti-KDEL antibody recognizing GRP78. The positions of p90ATF6 and p50ATF6 are indicated by open and closed arrows, respectively. The asterisks denote non-specific bands in which a sugar chain is not added to p90ATF6. The positions of molecular weight markers (manufactured by Bio-Rad, prestained SDS-PAGE preparations) are also shown.
By lysing 1×10^6 HeLa cells in 60 μl of 1×sample buffer (62.5 mM Tris-HCl (pH 6.8), 2% SDS, 350 mM dithiothreitol and 0.01% bromophenol blue), a whole cell extract was prepared. […] Using an ECL Western blotting detection kit (manufactured by Amersham Pharmacia Biotech), each antigen was detected.
In order to determine whether or not the appearance of p50ATF6 is associated with the intracellular UPR activity, stress-induced p50ATF6 appearance and GRP78 expression were monitored with the passage of time by immunoblotting.
In order to determine whether or not p90ATF6 is directly converted to p50ATF6 by endoplasmic reticulum stress, quantitative changes in p90ATF6, p50ATF6 and the target protein GRP78 in TM-treated HeLa cells were evaluated with the passage of time by immunoblotting using the purified ATF6 antibody.

CREB-RP(308-386): CREB-RP amino acids 308th to 386th with N-terminal Met; only basic region and leucine zipper
ERSE-dependent transcriptional induction by the TM treatment [1]: strongly suppressed

C/C=C(/C)C(=O)O[C@H]1C(C)=C2[C@H]([C@@H]1OC(=O)CCCCCCC)[C@@](C)(OC(C)=O)C[C@H](OC(=O)CCC)[C@@]1(O)[C@H]2OC(=O)[C@@]1(C)O [thapsigargin]
appearance of p50ATF6 relative to GRP78 induction [2]: p50ATF6 appeared in advance of GRP78 induction

CNc1ccc2oc(C[C@H]3O[C@@]4(CC[C@H]3C)O[C@H]([C@H](C)C(=O)c3ccc[nH]3)[C@H](C)C[C@H]4C)nc2c1C(=O)O [A23187]
appearance of p50ATF6 relative to GRP78 induction [2]: p50ATF6 appeared in advance of GRP78 induction

B1: CREB-RP(151-389): CREB-RP deletion mutant lacking transcription-activating domain (protein, UniProt Q99941 151-389, looked up, fragment)
chain: VIPTSDDSSDVQTKIEPVSPCSSVNSEASLLSADSSSQAFIGEEVLEVKTESLSPSGCLLWDVPAPSLGAVQISMGPSLDGSSGKALPTRKPPLQPKPVVLTTVPMPSRAVPPSTTVLLQSLVQPPPVSPVVLIQGAIRVQPEGPAPSLPRPERKSIVPAPMPGNSCPPEVDAKLLKRQQRMIKNRESACQSRRKKKEYLQGLEARLQAVLADNQQLRRENAALRRRLEALLAENSELK
ERSE-dependent transcriptional induction by the TM treatment [1]: strongly suppressed

B2: CREB-RP(81-389): CREB-RP deletion mutant lacking transcription-activating domain (protein, UniProt Q99941 81-389, looked up, fragment)
chain: IFPDLQVKSEPSSPCSSSSLSSESSRLSTEPSSEALGVGEVLHVKTESLAPPLCLLGDDPTSSFETVQINVIPTSDDSSDVQTKIEPVSPCSSVNSEASLLSADSSSQAFIGEEVLEVKTESLSPSGCLLWDVPAPSLGAVQISMGPSLDGSSGKALPTRKPPLQPKPVVLTTVPMPSRAVPPSTTVLLQSLVQPPPVSPVVLIQGAIRVQPEGPAPSLPRPERKSIVPAPMPGNSCPPEVDAKLLKRQQRMIKNRESACQSRRKKKEYLQGLEARLQAVLADNQQLRRENAALRRRLEALLAENSELK
ERSE-dependent transcriptional induction by the TM treatment [1]: strongly suppressed

B3: CREB-RP(1-389): CREB-RP amino acids 1st to 389th, corresponding to p60CREB-RP, activated form (protein)
chain: AELMLLSEIADPTRFFTDNLLSPEDWDSTLYSGLDEVAEEQTQLFRCPEQDVPFDGSSLDVGMDVSPSEPPWELLPIFPDLQVKSEPSSPCSSSSLSSESSRLSTEPSSEALGVGEVLHVKTESLAPPLCLLGDDPTSSFETVQINVIPTSDDSSDVQTKIEPVSPCSSVNSEASLLSADSSSQAFIGEEVLEVKTESLSPSGCLLWDVPAPSLGAVQISMGPSLDGSSGKALPTRKPPLQPKPVVLTTVPMPSRAVPPSTTVLLQSLVQPPPVSPVVLIQGAIRVQPEGPAPSLPRPERKSIVPAPMPGNSCPPEVDAKLLKRQQRMIKNRESACQSRRKKKEYLQGLEARLQAVLADNQQLRRENAALRRRLEALLAENSELKLGSGNRKVVCIMVFLLFIAFNFGPVSISEPPSAPISPRMNKGEPQPRRHLLGFSEQEPVQGVEPLQGSSQGPKEPQPSPTDQPSFSNLTAFPGGAKELLLRDLDQLFLSSDCRHFNRTESLRLADELSGWVQRHQRGRRKIPQRAQERQKSQPRKKSPPVKAVPIQPPGPPERDSVGQLQLYRHPDRSQPAFLDAIDRREDTFYVVSFRRGHLLLPAISHNKTSRPKMSLVMPAMAPNETLSGRGAPGDYEEMMQIECEVMDTRVIHIKTSTVPPSLRKQPSPTPGNATGGPLPVSAASQAHQASHQPLYLNHP
ERSE-mediated transcription from GRP78 promoter on overexpression ([1]; without ER stress, not observed with mutant ERSE): constitutively activated the transcription
